This is an account of results in a protein production outcome set (Wang et al. 2014).
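Note: failed if final PepcDB status was selected cloned or expressed and not failed if soluble or beyond.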

This series in a line: label from the status in PepcDB records.
Turning to “MTNWTEIDEIAKKWIREAGARITQSMHESLTIETKSNPNDLVTNIDKETEKFFIDRIQETFPGHRILGEEGQGDKIHSLEGVVWIIDPIDGTMNFVHQQRNFAISIGIFENGEGKIGLIYDVVHDELYHAFSGRGAYMNETKLAPLKETVIEEAILAINATWVTENRRIDQSVLAPLVKRVRGTRSYGSAALELANVAAGRIDAYITMRLAPWDYAAGCVLLNEVGGTYTTIEGEPFTFLENHSVLAGNPSIHKTIFEEYLHARK”, the protein production result is on record as “failed”.
With “MTPAARLSAAIELIDTIERDRVPAAKALKEWGTAHRFAGSGDRAAIAGLVWDVLRRYASSAFLMDADTARARLIGMLRLERDMDAATMAALFDGSRFAPAPLTEAEQAALSHRSLRDAPAAIAGDYPEWLDPHLAKVFGEDRAAEAAAMASRAPLDLRVNTLKSNRDKVLRALAHLHAKPTPWSATGLRIELSADARNPGIQAEEDFIKGAVEVQDEGSQLAAQFTAAKPGEQVIDLCAGAGGKTLALAAMMQGKGRLIATDSDKRQLAPIHERLSRAGVHNADVRTPKGEADPLADISATADLVVIDAPCTGTGTWRRNPDAKWRMRPGALEIRLRDQAEVLERAVPLVKLGGRIAYITCSVLAEENGEQVRAFIGRHPEFAVVPPEQIASVLWDKAEDFAKAALQSPEGWLMTPRRTGTDGFFVSVLKKTA”, the protein production result is listed as “failed”.
As for “MTPEALSFWTQADKPFLFLAACIELTNALAYGPGYVCGLPCSWDGSCSGAQHLCAATRSEDAWKVNLIGNDEVHDLYTIVGNAAKQSMARDTDPMVSTILAYEGDWRKVFKRNTMTTFYGSKGFGMAQQHMDDLMEPLSREVMQKKRAKHPFGQTRKEHHAASRLLAAHAAAAIKGEIPLAIKAMEFIQKLSAMMAHEGKPLEWTTPIGLPWSNRYHDPVTERVNLWMHDHGVRRPFRPVVADGYKKTINKNHSVNGSAPNFVHACDAAHLLRTVNAARAEGITQFALVHDSFGSLPSHAARFRQIIREEFVRMYEEHDVLTEVLEQAKCDLDEHNDKLSALVDMRADLTGKLNIKEVLNAEYAFAYPKLSEPDTKGEYADGKYKTEGTATEDYTERFQEEIQKVADDNFPGKKNVHLPWKETKEGDIAFIFKNPKKKPILTDSRGKPLKEGTVIRGGSKIRIAGVIAAWEKGAKRGVSLWPDAVRVIKLSEGFDANAAFGAAEDGFNADDYEPTNFGNDGEDADNDADDAEAGDDAFKLLEHHHHHH”, the entry is “not failed”.
With “MTPELNLKSLGAKTPYIFEYNSQLLEAFPNPNPNLDPLITLECKEFTSLCPITSQPDFGVIFIRYIPKDKMVESKSLKLYLFSYRNHGSFHESCINTILLDLVRLLEPKYLEVYGDFASRGGIAIKPFVNYAIKEYQDFKEKRLLNAK”, the protein production result is recorded as “failed”.
For “MTPETNETLKLIGSDKVQGTAVYGPDGEKIGSIERVMIEKVSGRVSYAVLSFGGFLGIGDDHYPLPWPALKYNVELGGYQVMVTVDQLERAPKYGPGSEWDWRGARKVDDYYGVALT”, the protein production entry is given as “not failed”.
With “MTPGEVRRLYFIIRTFLSYGLDELIPKMRITLPLRLWRYSLFWMPNRHKDKLLGERLRLALQELGPVWIKFGQMLSTRRDLFPPHIADQLALLQDKVAPFDGKLAKQQIEAAMGGLPVEAWFDDFEIKPLASASIAQVHTARLKSNGKEVVIKVIRPDILPVIKADLKLIYRLARWVPRLLPDGRRLRPTEVVREYEKTLIDELNLLRESANAIQLRRNFEDSPMLYIPEVYPDYCSEGMMVMERIYGIPVSDVAALEKNGTNMKLLAERGVQVFFTQVFRDSFFHADMHPGNIFVSYEHPENPKYIGIDCGIVGSLNKEDKRYLAENFIAFFNRDYRKVAELHVDSGWVPPDTNVEEFEFAIRTVCEPIFEKPLAEISFGHVLLNLFNTARRFNMEVQPQLVLLQKTLLYVEGVGRQLYPQLDLWKTAKPFLESWIKDQVGIPALVRAFKEKAPFWVEKMPELPELVYDSLRQGKYLQHSVDKIARELQSNHVRQGQSRYFLGIGATLVLSGTFLLVSRPEWGLMPGWLMAGGLIAWFVGWRKTR” the entry was “failed”; with “MTPGTGSALGLLAAAVDAKAVAEIGTGCGVSGIHLLHGMRPDGVLTTVDPEPEHQQFARHAFRAAGFASNRARFIPGRALDVLPRLADAGYDLVFCDGDRLEYLDYLAESLRLLRPGGLVAFEGVFGAGRTIDSGPQPTEVLRVRELLRAVRESQELVPSLLPVGDGLLCAVKR”, “failed”; with “MTPPASSSPCSSSDKRNRAVPSAKALMVWRAGPDGRPLDPSQFPQDPPARRDGDGGGAEAWLNLVHPEEREAVLLLWRRALREGEEFEARYRLHRGLSGYRWALGQGRPLRGDDGEVREWIGTVVDIHDHMEAERTIALSEERLRLALDSADLGVWECTIATNQWWFSEAALRILGCPPDAETSIETVMGAIHSDDLDGLRARWHAARTGRARDRMEGEFRIQRGGGRLGWIACSARLVADDGKAVTRMLGTLRDITKTRLQREKLYHLAHFDPLTGLPNRHEMITRTQATLASGGAAGGAGAILLLDLDGFKEANDTLGQATGDALLKRIAHRLVSSLPADSLIGRVGGDEFLVVVPGVAEQWTATRIADGLYDVLTVPFVIGDRRIPLSGRIGIALAPRDGTSAQDLMTHAELALQETKTISGCVTRFFSPRLHDEARERQDMGLELRRATDNGEFELFYQPQIRLSDRAVVGAEALLRWRHPTRGVMPPAAFLHVLKRGPLAGEVGEWVVAKACADAAGLLNAGSRIRMAVNLFSAQFKAGTVDATVRRSLLESGLPAELLELEITEKVTLDRDEGILTCLKGLRDLGCGVAFDDYGTGYASLSMLKRYPLTRLKIDRAFVQHLAESPKDGAIVRAVLSLGNTFGLSVTAEGIEEEEQEKLLLGQGCDEGQGYFFGRPMPLADFIQFLARVKKNPGEFPTPA”, “failed”.
With “MTPQDAQAFEQLLANCADEPIRSPGAIQPHGVLLTLSEPELRIQQISANVEALLGQPAAQVLGQPLEQLLGDTDGQRIREVLQLPRLSDAPPLHLAVNGARFEGLLHRHQGVLMLELEIQLEHLQPQHLKEQTENLGRLLRRLQTAKTLNELYAISVSEIQAMTGYDRVLIYRFEEEGHGQVIAEATRPTMEVFNGLFFPASDIPQQARELYRSNWLRIIPNADYQPVPLLPALRPDTQQALDLSFATLRSVSPIHCQYMKNMGVLSSMSISLLKGDQLWGLISCGNRQPLLVPHELRIACQTIGQVLSLQISAMEALDISRQREEKVTALASLDQAMRDTPDSVFDGLAQVPQLLLDLTQAGGVAIIEDKQLHCFGNCPPQDEIRALHRWLQGTGQAVFASHHLANVYPPAASYQQVASGVLAMTLPKPVDNGVLWFRPEVKENINWSGNPQKPLDLENSDAGLRLRPRTSFEIWKVEMAGISTKWSHGDRFAANDLRRSALEHDLARQVLREQQAVRARDELVAVVSHDLRNPMTVISMLCGMMQKAFSSDGPHTSRRISSAIDTMQQAASRMNNLLEDLLDTSKIEAGRYSIAPQPLDVSQMFEEAYSLLAPLALDKAIDISFHAEPDLRINADPERLFQVLSNLVGNAIKFTPKQGKVGVVAMSDGEQIVFSVRDSGEGIPTDQLPFIFDRYWTMKEGNPNGTGLGLYITQGIIHAHGGKIEAHSEVGKGSEFRFSVPRASL” the entry was “failed”; with “MTPRHQRDLSRRKLLAALAGTAVAVPAAAMGAPHALATVASDNGGAAPRAAGALPLTIVNRTGSFANSSVHLYIVGNEDGKQVRVTSEGTLAPISLADNGADGFTDYAIALSGSGETRLSLPYMSGRIYVALGDKLKLKAVADGNGNAALQYPAGWVESDPNYRVLHDCAEFTHNSAGMFCNTTMVDMFSVPLSIRLTGTKDQTTGTLRDGGRARVFAAVKSVPEFERLVVDDLRVIAPGHGLDAGIFAEDYFAPYIDEVWSTYTGKDLTVTTNAGAFTGRVRGDKLTFTGPASVSFSKPSTRDVFFCDGSLAAPNDGTTGPVAAVLGAGFNRSTLVNDSAQPTTDPAAFYGSALANHYAKAIHAATEDGKAYGFAFDDVADFASYIQDTAPTGINLTLTPF”, “failed”.
With “MTPRHQRPLARRKLLVALGGAVVAAPVAAAVAPHALAGIGPDGPAPAAAGALPLTIVNDTGSFGNADVHVYIVGNVDGRQVRVTPDGTVAPVALSDNGADGYTDYAIGLSGSGETKLSLPHLSGRIYVSLGEKLKFKVVADGAGNAALQYPAGWVESDPNYAVLHDCAEFTYNAAGMFCNTTMVDMFSVPLAIRLTGADDRTTGTVRPGGRAAVFEAVRKVEEFAPLVVDDTRVIAPGHGLDAGLFPKDYLAPYIDEVWSTYTGKDLRITTNAGTFTGRVRGDRLTFDGPAQVSFAKPSTRDVLFCDGNLAAPNDGTTGPVAAVLGAGFNRSTLVSSAEQPTTDPATFYGTALTNHYAKAVHAATEDGRAYGFAFDDVADFASYIQDTAPTGIRLTLGAFLEHHHHHH” the entry was “failed”.
With “MTPVLSLDMEDPIRFIDENGSFEVVKVGHNLAIHGKKIFDELAKRNLKIILDLKFCDIPSTVERSIKSWDHPAIIGFTVHSCAGYESVERALSATDKHVFVVVKLTSMEGSLEDYMDRIEKLNKLGCDFVLPGPWAKALREKIKGKILVPGIRMEVKADDQKDVVTLEEMKGIANFAVLGREIYLSENPREKIKRIKEMRL”, the protein production result is listed as “not failed”.
As for “MTQAFSRVRFIMTQPSHPGNVGSAARAIKTMGFGELVLVAPRFPDMTAQPEAVALASGALDVLERAAVHDTLEEALAPVTLAFALTTRVRDLGPPPCDIREAAGLARRHLDDTEAGVVAIVLGTERAGLTNAQIELCHRICHIPANPQYSSLNVAQALQLAAWELRYALLAGTGQSLLPASSAQQANPGAAPADGAAVQALLAHWEQALVAVGFLDPAHPKKLMPRMKHLLTRSALSRDEVDMLRGVCTAMIAPNRPK”, the entry is “not failed”; as for “MTQAKFVEGSILRHILVMSSTAAVGISALFVVDLLDIFFLSLLGEHELAAAVGYAGSISFFTTLIGIGLSIALGALVSRSIGAKDVELAKRLLLNSAVVTTLISVFVSIVVTTFIPELVTLVGASGHTAELAESYLYILVPSLPFICLAMALGGALRSVGDAKLSMMSTLAGGGVNAVLDPIFIFLFAMGIEGAALASVLARITVFVIAGRGVMVKHQLLGKFNRSDFKADLKPIFAIAGPAILTNIATPIGNAFVTRAIADFGDAYVAGWAVLGRLVPVTFGMIFALSGAIGPIVGQNFGAGRFDRVRESLTKAIQFCTLYVVVMSLLLFLLKSQIVSLFDMKGDSAALIEFFCSYIAVFFIFSGILFVANASFNNLGKAKYSTLFNVGKATLGTVPFVYVGAQLGGVYGVLIGQVIGSILFGVVGVWVAYRLVDKVVLTSTGHGVVSLATDADELMTDTVAPSATSPLSSSCAQMAQLTEEQEMEPVLPLIGQQDNSRR”, “failed”.
As for “MTQASRSEFRAELLSRIPRWYSPWGHLLFPAVAGLAIAAFALSRIEDLAAWQLAAVPAFLVFGNAVEWTAHRGMLHRRLRFAEVFYVRHTPQHHAVYVADDMAMRDWRELKLVLLPAYGVLAILAVTSPLTLAFLWLRQPNLAALWVASVVLYVLSYEWLHLAYHLPADRWLARTALVRTLRRHHQLHHAPHLMNRWNFNVTVPLWDWVRGTLYPAPAPGSRPAAQPTGAAGRAP”, the entry is “failed”.
Turning to “MTQHITRMRREIDEIPEAVQRLLDHGAQDVARVAAVLRLRDPSFVATVARGSSDHVCTYLSYAAELLLGLPVASLGPSVASVYDARLRLDRALCLAVSQSGKSPDIVAMTRNAGRDGALCVALTNDAASPLAGVSAHTIDIHAGPELSVAATKTFVTSAVAGLMLLADWAEDDGLRAALGNLPETLAAASRIDWPEMRVAIGARPSLFTLGRGTSLAVSNEAALKFKETCQLHAESYSSAEVLHGPVSIVEEGFPVLGFAAGDAAEAPLAEIADQIAAKGATVFATTGRVTRARVLEHVRSGHALTDPLSLIVSFYSMVEAFASERGIDPDAPRHLNKVTETV”, the protein production entry is given as “not failed”.
With “MTQKNVITEVFDIVFIFVLAFACVVIPTVLQGAVLVSWEEGGAGIGFVWDPVGFFSFLLVIVAFFAVILYHSVKHYRY” the entry was “failed”.
